We go through 41 sequences from the nanobody polyreactivity screen of Harvey et al. (2022).

The data set can be described thus: yeast display, Sf9 membrane polyspecificity reagent, FACS + sequencing; frameworks hold sequencing errors. The procedure, abridged:
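Nanobodies came from a synthetic yeast display library in Saccharomyces cerevisiae BJ5465, induced with galactose for 36–48 hours and stained for 1 hour at 4 °C with 10% biotinylated, detergent-solubilized Sf9 membrane reagent. Cells were enriched on streptavidin microbeads and then FACS-sorted, with low and high (top ~1%) gates set on anti-HA fluorescence for expression and streptavidin fluorescence for reagent binding. Each polyreactivity label reflects the gate a clone came from. Genes were amplified by colony PCR, sequenced by MiSeq 2 × 250 and filtered by CDR length.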
Consider “QVQLVESGGGLVQAGGSLRLSCAASGITFYGYAMGWYRQAPGKERELVARISSGGTTKYADSVKGRFTISRDNAKNTVYLQMNSLKPEDTAVYYCAVGGYWWYYGFYYWGQGTQVTVSS”, for which the “polyreactivity (PSR sort gate)” value is on record as “high polyreactivity”. Under “QVQLVESGGGLVQAGGSLRLSCAASGFIFGYYAMGWYRQAPGKERELVAAINGSGGSTYYADSVKGRFTISRDNAKNTVYLQMNSLKPEDTAVYYCNADVVPQYYSWGQGTQVTVSS” stands “low polyreactivity”; under “QVQLVESGGGLVQAGGSLRLSCAASGSIYYNAMGWYRQAPGKERELVASISTGDSTDYADSVKGRFTISRDNAKNTFYLQMNSLKPEDTAVYYCAADTRLGYWDDYWGQGTQVTVSS”, “low polyreactivity”. Consider “QVQHVESGGGLVQAGGSLRLSCAASGRTFYRNAMGWSRQAPGKELELVAAITRSGGSTYYADSVKGRFTTSRDNAKNTVYLQMNSLQPEDTAVYYCARRLYPYRPTPYDYWGQGTQVTVSS”, for which the “polyreactivity (PSR sort gate)” value is on record as “low polyreactivity”. Under “QVQLEESGRGLVQAGGSLRLSCAASGSTSGIYAMGWYRQAPGKERELVAAITWSGGSTNYADSVKGRFTISRDNAKNTVYLQMNSLKPVDTAVYYCAAEFYSYKYPDFDYWGQGTQVTVSS” stands “low polyreactivity”. The same measure for “QVQLVESAGGLVQAGGSLRLSCAASGRTSDGYAMGWSRQAPGKERELVAGITEGGGDTYYADSVKGRFTISRDNAKNTVYLQMNSLKTEDTAVYYCAKDLRRYLSWWYRYPYDYWGQGTQVTVSS”: “low polyreactivity”; for “QVQLVETGGGLVQAGGSLRLSCAASGLTFDENAMGWYRQAPGINYSGASTYYADSVKGRFTISRDNAKNTVYLQMNSLKPEDTAVYYCAAEVVAQMNYWGQGTQVTVSS”: “low polyreactivity”.

On to “QVHLVETGGGLVQAGGSLRLSCAASGITFDQYAMGWYRQAPGKERELVAAITGSGGNTYYADSVKGRFTISRDNAKNTVYLQMNSLKPEDTAVYSCGAAVGRARDYWGQGTQVTVSS”, for which the “polyreactivity (PSR sort gate)” value is listed as “low polyreactivity”. The same measure for “QVQLVESGGGVVQAGGSLRLSCAASGRIIKSYAMGWYRQAPGKERDLVAAITRGGRTSYADSVKGRFTISRDNAKNTVYLQMNSLKPEDTAVYYCADDGGWRYHPFSSLFDYWGQGPQVTVSS”: “low polyreactivity”; for “QVQLVESRSGIVQAGRSLRLSCAASGSIFGSYVMGWYRQAPGKERELVAAITVRTGTTYYADSVKGRFTISLDNAKNTVYLQMKRLKPEDTAVYYCDSRYGPKYGYWGQGNQVTVSS”: “high polyreactivity”. The same measure for “QVQLVESGGGLVQAGGSLRLSCAASGRIFYTYVMGWYRQAPGKERELVAAINRSGGTTYYADSVKGRFTISRDNAKNTGYLPMNSLKPEDTAVYYCNATLPDYWPYYYYQGGDDYWGQGTQVTVSS”: “low polyreactivity”; for “QVQLVESGGGLVQAGGSLRLSCAASGINFVLYAMGWYRQAPGKERELVAAITSGGRTYYADSVNGRFTISRDNAKNTVYLQMISLKPEDTAVYYCADNYFTQRLWFDYWGQGTQVSVSS”: “high polyreactivity”.

Consider “QVQLVESGGGLVQAGGSLRLSCAASGLPFYQYAMGWYRQAPGKERELVAGISSGGSTKYADSVKGRFTISRDNAKNTVYFQMNSLKPEDTAVYYCAARFYAFRKGYYYWGQGTQVTVSS”, for which the “polyreactivity (PSR sort gate)” value is given as “high polyreactivity”.

In the case of “QVQLVESGGGLVQAGGSLRLSCAASGGIFLFNAMGWYRQAPGKERELVAAITDGGSTYYADSVKGRFTISRDNAKNTVYLQMNSLKPEDTAVYYCNAEGVSLYGYDSGVDSGEDYWGQGTQVTVSS”, the “polyreactivity (PSR sort gate)” value is “low polyreactivity”. The same measure for “QVQLVESGGGLVQAGGSLRLSCAASGFIFSGYAMGWYRQAPGKEWELVAAISRRGGSTYYADSVKGRFTISRDNAKNTVYLQMNSLKPEDTAVYYCARTTRGSYGKFYYWGQGTQVTVSS”: “high polyreactivity”. The same measure for “QVQLVESGGGLVQAGGSLRLSCAASGIIFDSYTMGWYRQAPGKERELVAGISGSGGSTDYADSVKGRFTISRDNAKNTFYLQMNSLKPEDTAVYYCAARPTPYRDDADEYWGQGTQVTVSS”: “low polyreactivity”; for “QVQLVESGGGLVQAGGSLRLSCAASGIIFKYNAMGWSRQAPGKERELVAAITSGGSTYYADSVKGRFTISRDNAKNTVYLQRNSLKPEDTAVYYCAARYTYVKNFFRRLTAYYYWGQGTQVTVSS”: “high polyreactivity”.

As for “QVQLVESGGGLVQAGGSLRLSCAASGSIFSRIAMGWYRKAPGKERELVAAISGRGGSTYYADSVKGRFTISRDNAKNTVYLHMKSLKPEDTAVYYCAKAVNYRLSQAMDYWGQGTQVTVSS”, the “polyreactivity (PSR sort gate)” value was “high polyreactivity”. The same measure for “QVQLVESGGGLVQAGGSLRLSCAASGRIFYYYAMAWYRQAPGKERELVAAITRRGGSTYYADSVKGRFTISRDIAKNTVYFQMNSLKPEDTAVYYCAKPDRTGWLDGDYWGQGTQVTVSS”: “low polyreactivity”; for “QVQLVESGGGLVQAGGSLRLSCAASGSTFYNYVMGWYRQAPAKERELVAAITSRGGRTYYADSVKGRFTISRDNAKNTVSLQMNSLKPEDTAVYYCARDRGYQSGYDYWGQGTQVTVSS”: “high polyreactivity”. The same measure for “QVQLVESGGGLVQAGGSLRLSCAASGFTFIYNAMGWYRQAPGKERELVAAISYRTSRTYYADSVKGRFTISRDNAKNTVYLQMNSLKPEDTAVYYCAKGYGRHGLDYWGQGTQVTVSS”: “high polyreactivity”; for “QVQLVESGGGLVQAGGSLRLSCAASGSIFPYYVMGWYRQAPGKERELVAAISTSDGSTYADSVKGRFTISRDNAKNTVYLQMNSLKPEDTAVYYCAVANVYYEGYDYWGQGTQVTVSS”: “low polyreactivity”; for “QLQLVESGGGLVQAGGSLRLSCAASGGIFPYYAMGWYRQAPGKEMELVAAISRSGGITYYADSVKGRFTISRDNAKNTVYLQMNSLKPEDTAVYYCAALSRWRYKRYDYWGQGTQVTVSS”: “high polyreactivity”.

Regarding “QVQLVESGGGLVQAGGSLRLSCAASGFNFSSYAMGWSRQAPGKERELVAAISGSGGTTYYADSVKGRFTISRDNAKNTVYLQMNSQKPEDTAVYYCATRLGLVITKYGYDYWGQGTQVTVSS”, the “polyreactivity (PSR sort gate)” value was “high polyreactivity”. The same measure for “QVQLVESGGGLVQAGGSLRLSCAASGSNFVYNAMGWYRQAPGKERELVAVINKSGDTTYYADSVKGRFTISRDNAKNTVYLQMNSLKPEDTAVYYCNASGEVLAAVVTYDYWGQGTQVTVSS”: “low polyreactivity”; for “QVQLVESGGGLVQAGGSLRLTCAASGRIFIYYAMGWYRQAPGKERELVAAISWGGGRTYYADSVKGRFTISRDNAKNTVYLQINSLKPEDTAVYYCAAGVYTGQHEYDYWGQGTQVTVSS”: “low polyreactivity”; for “QVQLVESGGGLVQAGVSLRLSCAASGRIFYRYAMGWYRPPPVKERELVAGITSGGSTYYADSVKGRFTISRDNAKNTVYLQMMSLKPEDTAVYYCAAVSYRSRTHRYPATFAYGSWGQGTQETVSS”: “high polyreactivity”.

As to “QVQLEESGGGLVQAGGSLRLSCAASGFTFTYYAMGWYRQAPGKERELVASISYSGGSTYYADSVKGRFTISRDNAKNTVYLQMNSLKPEDTAVYYGAARTRHVHYGYWGQVTQVTVSS”, the “polyreactivity (PSR sort gate)” value is given as “high polyreactivity”. The same measure for “QVQLVESGGGLVQAGGSLRLSCAASGLIFGGYTMGWYRQAPGKERELVAAIDSGGSTKYADSVKGRFTISRDNAKNTVYLQMNSLKPEDTAVYYCAARDYYAWRYRYHHEVSEFDYWGQGTHVTVSS”: “low polyreactivity”.

Take “QVQLVESGGGLVQSGGSLRLSCAASGLIFYDNMGWYIQAPGKERELVAAISSSGGSTSYADSVKGRFTISRDNAKNTVYLQMNSLKPEDTAVYYCAADSYPAYLGFVGFDYWGQGTQVTVSS”: the “polyreactivity (PSR sort gate)” value is on record as “low polyreactivity”. Under “QVQLVESGGGLVQAGGSLRLRCAASGIIQQSYALGWSRQAPGKERELVAAIRGSDGSTYYADSVKGRFTISRDNAKNTVYLQMNSLKPEDTAVYYCNADTRTWPLDYWGQGTQVTVSS” stands “low polyreactivity”. With “QVQLVESGGGLVQAGGSLRLSWAASGITLHGYAMGWYRQAPGKERELVAAITGSGGRTYYADSVKGRFTISRDNAKNTVYLQMNSLKPEDTAVYYCNAGAVYWGYSRGWYERDYWGQGTQVTVSS”, the “polyreactivity (PSR sort gate)” value is “high polyreactivity”. The same measure for “QVQLVESGGGLVQAGGSLRLICAASGFTFYENAMGWYRQAPGKERELVATISYSGGTTYADSVKGRFTISRDNAKNTVFLQMISLKPEDTAVYYCAADKDGYTYEFDYWGQGTQVTVSS”: “low polyreactivity”.

For the sequence “QVQLVESGGGLVQAGGSLRLSCAASGFTFYNYAKGWYIQAPGNERELVAAITSRGGSTYYADSVKGRFTISRDNAKNTVYLQMNSLKPEDTAVYYCAAGYVHYGWFELDYWGQGTQVTVSS”, the “polyreactivity (PSR sort gate)” value is “low polyreactivity”. Under “QVQIVESRVGLVQAGGSLRLSCAASGLTFYYYAMGWYRQAPGKERELVAAIDGSGGITYYEDSLKARFTISRDNEKNTVYLQMNSLKPEDTAVYYCAAERVVGDAYDYWGQGTQVTVSS” stands “high polyreactivity”. For “QVQLVESGGGLVQAGGSLRLSCAASGRIFWDYAMGWYRQAPGKERELVAVITFSGDSTYYADSVKGRFTISRDNAKHTVYIQMNSLKPEDTAVYYCAAARAIRQFWYVATFEYWGQGTLVTVSS”, the “polyreactivity (PSR sort gate)” value is “low polyreactivity”.

On to “QVQLVESGGGLVQAGGSLRLSCAASGSIFGDYVMGWYRQAPGKERELVAAISGNGGRTYYADSVKGRFTISRDNAKNTVYLQMNSLKPEDTAVYYCAKVRSVTIGRDYWGQGTQVTVSS”, for which the “polyreactivity (PSR sort gate)” value is recorded as “high polyreactivity”.

Consider “QVQLVESGGGLVQAGGSLRLSCAASGTIFYIYAMGWYRQAPGKERELVAAITWRGGRTYYADSVKGRFTISRDNAKNTVYLQMNSLKPEDTAVYYCAALYANYYYRYEYWGQGTQVTVSS”, for which the “polyreactivity (PSR sort gate)” value is recorded as “high polyreactivity”. Regarding “QVQLVESGGGLVQAGGSLRISCAASGITFPWYAMGWYRQAPGKERELVAAINRAGNTNYADSVKGRFTISRDNAKNTVYLQMNSLKPEDTSVYYCAARWRYKYTLGYWGQGTQVTVSS”, the “polyreactivity (PSR sort gate)” value is on record as “high polyreactivity”. The same measure for “QVQLVESGGGLVQAGGSLRLSCAASGSTFAIYAMGWYRQAPGKERELVAAITGRSGSTYYADSVKGRFTISRDNAKNTVYLQMNSLKPEDTAVYYCAAQGGYRRTPYIHRDYWGQGTQVTVSS”: “high polyreactivity”; for “QLQLVESGGGLVQAGGSLRLSCAASGRNFGYNAMGWYRPAPGKERELVAVINIDGSTNYADSVKGRFTISRDNAKNTVYLQLNSLNPEDTAVYYCAARYWKSYRNGGFFGFTYYYWGQGTQVTVSS”: “high polyreactivity”.
